Results from patent US10052364B2, “Osteocalcin as a treatment for cognitive disorders” (THE TRUSTEES OF COLUMBIA UNIVERSITY IN THE CITY OF NEW YORK, priority 2013, dated 2018).

Tests used:
[1] = tested on: mouse primary hindbrain neurons (MPHN); assay: Gene expression in cultured mouse primary hindbrain neurons; assay type: cell-based; conditions: osteocalcin 3 ng/ml, 2 or 4 hours, WT and Gprc6a-/-
Method: For gene expression studies, RNA was isolated from primary neurons or tissue using TRIZOL® (Invitrogen). cDNA synthesis was performed following a standard protocol from Invitrogen and qPCR analyses were done using specific quantitative PCR primers from SABiosciences (www.sabiosciences.com/RT2PCR.php).
For primary culture of hindbrain neurons, E14.5 embryos were obtained from matings of 129-Sv WT mice. Hindbrains were dissected out and collected in ice-cold filter sterilized HBSS buffered with 10 mM HEPES until dissection was complete, at which point they were finely chopped into 2 mm cubes, dissociated by trituration with a fire-polished Pasteur pipette and spun down at 4° C. Cells were then plated onto poly-D-lysine coated coverslips or dishes in Neurobasal medium supplemented with 2% B27, 0.25 mM Glutamax, 0.25 mM L-glutamine, penicillin G (50 U/ml), and streptomycin sulphate ([…]). Cultures were fed every 3-6 days with one half replacement medium without L-glutamine.
To determine if osteocalcin acts directly on neurons to modulate neurotransmitter synthesis, several types of assays were performed. First, brainstem and midbrain explants from WT and Gprc6a^−/− mice were generated. […] Third, to further confirm that osteocalcin signals in neurons of the hindbrain, calcium flux in MPHN treated with undercarboxylated or carboxylated osteocalcin (FIG. 3F) was measured. […]

[2] = Acute stereotactic injection into the hippocampus, pCREB and PKA immunofluorescence; assay type: in vivo, mouse; conditions: 10 ng into hippocampus, 16 h post injection
Method: (§1) FIG. 10. Osteocalcin administration results in CREB phosphorylation. (A) p-CREB immunofluorescence (IF) in the dentate gyms (DG) of WT and Ocn−/− hippocampal region. (B) p-CREB IF in WT brain sections following a dual stereotactic injection of vehicle (PBS) (on the left) or Ocn (10 ng) (on the right) in the hippocampus. The arrows point toward the DG. (C) PKA IF in WT brain sections following a dual stereotactic injection of vehicle (PBS) (on the right) or Ocn (10 ng) (on the left) in the hippocampus.
(§2) The resulting effects on animal behavior of direct recombinant uncarboxylated osteocalcin delivery raise the question of the molecular mechanism of action of osteocalcin in the brain. Given that osteocalcin acts through a G-protein coupled receptor pathway in other tissues, e.g., pancreas and testis, the phosphorylated CREB levels in the hippocampi of Ocn−/− and WT animals was checked. […] The hippocampus is essential for optimal spatial learning and memory in rodents. It was then asked whether the acute stereotactic injection of 10 ng of recombinant uncarboxylated osteocalcin directly into the hippocampus of WT animals would affect pCREB levels. At 16 h post injection, pCREB staining was increased in the hemisphere injected with osteocalcin versus the one injected with PBS in the same animal (FIG. 10B).

[3] = tested on: CREB phosphorylation in the hippocampus; assay: as above; assay type: in vivo, mouse; conditions: 10 ng into hippocampus of WT animals, 16 h post injection
Method: as §1, §2

B1: uncarboxylated osteocalcin: Recombinant osteocalcin bacterially produced, cleaved from the GST subunit; completely undercarboxylated at all three sites (protein, listed as Homo sapiens)
chain: MRALTLLALLALAALCIAGQAGAKPSGAESSKGAAFVSKQEGSEVVKRPRRYLYQWLGAPVPYPDPLEPRREVCELNPDCDELADHIGFQEAYRRFYGPV
modifications: uncarboxylated
notes: Recombinant osteocalcin bacterially produced, cleaved from the GST subunit; completely undercarboxylated at all three sites
Question: Which results are given for B1?
Answer: GA' expression decrease in primary brainstem neuronal culture [1]: 65%; Tph2 expression in primary brainstem neuronal culture [1]: increased more than three-fold; PKA staining in the injected hemisphere [2]: widespread and dramatic increase; pCREB staining in injected hemisphere versus PBS hemisphere [3]: increased
